Test results: patent US20120076780A1
Where two headings read alike, the source gives them in different places. Blank lines part the entries; values can stand above or below the substance they belong to.

Key:
[1] = molecular target: ErbB2 on human tumor cells (SKBR3, A431, T47D, MCF7, MDA-MB231) (human) (UniProt P04626); experiment: cell-based or functional assay
[2] = molecular target: ErbB2 on human tumor cells (SKBR3, A431, T47D, MCF7, MDA-MB231) (human) (UniProt P04626); experiment: whole-cell ELISA on SKBR3 cells, anti-PE detection, after 24 h at 37 C in 100% human serum
[3] = molecular target: MUC1 on cells (T47D, MCF7, DA3-MUC1) (human) (UniProt P15941); experiment: whole-cell ELISA on T47D cells; apparent affinity from the half-maximal binding signal
[4] = molecular target: MUC1, secreted isoform from conditioned medium of MUC1-transfected DA3 cells (UniProt P15941); experiment: ELISA on coated MUC1 conditioned medium; apparent affinity from the half-maximal binding signal
[5] = molecular target: ErbB-1 (EGFR) on human cancer cells (SCC-1, SCC-9, C1-1 clone 3, C1-1 clone 7) (human) (UniProt P00533); experiment: cell-based or functional assay
[6] = molecular target: ErbB-1 (EGFR) on human cancer cells (SCC-1, SCC-9, C1-1 clone 3, C1-1 clone 7) (human) (UniProt P00533); experiment: cell-based or functional assay; remark: listed apart in the source
[7] = molecular target: ErbB-1 (EGFR) on human cancer cells (SCC-1, SCC-9, C1-1 clone 3, C1-1 clone 7) (human) (UniProt P00533); experiment: cell-based or functional assay; remark: listed apart in the source

Substance: scFv(FRP5)-ETA
IC50 (pM), cell killing, MTT assay, A431 cells [1]: 52 pM

Substance: chFRP5-ZZ-PE38 immunoconjugate (from UniProt P01857 1-330)
IC50 (ng/ml), cell killing, MTT assay 48 h, MCF7 cells [1]: 600 ng/mL
IC50 (ng/ml), cell killing, MTT assay 48 h, MDA-MB231 cells [1]: > 10000 ng/mL
IC50 (ng/ml), cell killing, MTT assay 48 h, T47D cells [1]: 1000 ng/mL
IC50 (pM), cell killing, MTT assay, A431 cells [1]: 10 pM
IC50 (pM), cell killing, MTT assay, MCF7 cells [1]: 300 pM
decrease of binding activity [2]: 17%

Kd [3]: 0.25 nM
Kd [4]: 0.2 nM
Substance: murine H23 mAb (antibody)

Kd [3]: 0.3 nM
Kd [4]: 0.3 nM
Substance: chimeric H23 IgG1 (from UniProt P01857 1-330) (antibody)

Substance: cross-linked cetuximab-ZZ-PE38 immunotoxin complex
IC50, cell survival, XTT assay, SCC-1 cells [5]: 7.54 ng/mL

Substance: cetuximab-ZZ-PE38 complex (non-cross linked)
IC50, cell survival, XTT assay, SCC-1 cells [6]: 0.47 ng/mL
percent of SCC-1 cells killed at 0.001 µg/ml of immunotoxin complex [6]: 80%
IC50, cell survival, XTT assay, SCC-1 cells [5]: 0.31 ng/mL
IC50, cell survival, XTT assay, C1-1 prostate cancer cells clone 3 [7]: 12 ng/mL
IC50, cell survival, XTT assay, C1-1 prostate cancer cells clone 7 [7]: 38 ng/mL
IC50, cell survival, XTT assay, SCC-1 cells [7]: 0.261 ng/mL
IC50, cell survival, XTT assay, SCC-9 cells [7]: 0.073 ng/mL
